Laboratory results taken from article PMC4256133 (Proteins, 2014).

Biological target: the molecule itself
Experiment: crystal structure

B1: Octaprenyl pyrophosphate synthase from Escherichia coli (enzyme, E. coli)
chain: MNLEKINELTAQDMAGVNAAILEQLNSDVQLINQLGYYIVSGGGKRIRPMIAVLAARAVGYEGNAHVTIAALIEFIHTATLLHDDVVDESDMRRGKATANAAFGNAASVLVGDFIYTRAFQMMTSLGSLKVLEVMSEAVNVIAEGEVLQLMNVNDPDITEENYMRVIYSKTARLFEAAAQCSGILAGCTPEEEKGLQDYGRYLGTAFQLIDDLLDYNADGEQLGKNVGDDLNEGKPTLPLLHAMHHGTPEQAQMIRTAIEQGNGRHLLEPVLEAMNACGSLEWTRQRAEEEADKAIAALQVLPDTPWREALIGLAHIAVQRDR
stoichiometry N: 2
